Assay results reported in article PMC9315428, “Distinctive in vitro ATP Hydrolysis Activity of AtVIPP1, a Chloroplastic ESCRT-III Superfamily Protein in Arabidopsis” (Frontiers in Plant Science, 2022).

Substrate: Nc1ncnc2c1ncn2[C@@H]1O[C@H](COP(=O)(O)OP(=O)(O)OP(=O)(O)O)[C@@H](O)[C@H]1O
Experiment: malachite green (PiColorLock) Pi release, Cornish-Bowden plot
Type: biochemical, Arabidopsis thaliana
Details: Mg2+ (2.5 mM MgCl2), pH 7.5, 37 °C, 0.5-4.0 mM ATP
Source text: malachite green (PiColorLock) Pi release, Cornish-Bowden plot on AtVIPP1-His

B1: AtVIPP1-His (Arabidopsis thaliana) (protein)
chain: MNLFERFSRVVKSYANALISSFEDPEKILEQTVIEMNSDLTKMRQATAQVLASQKQLQNKYKAAQQSSDDWYKRAQLALAKGDEDLAREALKRRKSFADNATALKTQLDQQKGVVDNLVSNTRLLESKIQEAKAKKDTLLARARTAKTATKVQEMIGTVNTSGALSAFEKMEEKVMAMESEADALTQIGTDELEGKFQMLETSSVDDDLADLKKELSGSSKKGELPPGRSTVAASTRYPFKDSEIENELNELRRKANDF
notes: mature protein, N-terminal transit peptide removed, C-terminal His tag kept; E. coli BL21(DE3)pLysS; homo-oligomer (spherical particles 30-50 nm, some rods)
With B1 the Km was 3.21 mM.
